Results from patent US20140161804A1 (AbbVie / Abbott, published 2014).
Changes are numbered by the printed parent chain.

B1: IL17-h10F7M-B20 hIgG1/K mut (antibody, V domains shown)
VH: EVQLVQSGAEVKKPGSSVKVSCKASGYTFTDYEIHWVRQAPGQGLEWMGVNDPESGGTFYNQKFDGRVTLTADESTSTAYMELSSLRSEDTAVYYCTRYDKWYSFEGMDIWGQGTTVTVSS
VL: DIQMTQSPSSLSASVGDRVTITCRASSGIISYIDWFQQKPGKAPKRLIYATFDLASGVPSRFSGSGSGTDYTLTISSLQPEDFATYYCRQVGSYPETFGQGTKLEIK
notes: Full length human IgG1/kappa, IgG1 mut(234,235); also called h10F7-B20; J439M1S2(H)3 #B20
B2: IL17-h10F7M10 hIgG1/K mut (antibody, V domains shown)
VH: B1 VH with T30D, M48I, V68A, E74K, Y103D, E106Y, I110Y
VL: B1 VL with R24S, I29S, D53E, Y71F, R89H, V91L, E96D
notes: Full length human IgG1/kappa, IgG1 mut(234,235) (HC plasmid pHybE-hCg1,z,non-a,mut(234,235); LC pHybE-hCk); also called J439M1S3R5#10; PR-1262986
B3: IL17-h10F7M11 hIgG1/K mut (antibody, V domains shown)
VH: B1 VH with D100S, Y103D, E106D, I110Y
VL: B1 VL
notes: Full length human IgG1/kappa, IgG1 mut(234,235); also called J439M1S3R5#11; PR-1263009
B4: IL17-h10F7M-A6 hIgG1/K mut (antibody, V domains shown)
VH: B1 VH with M48I, E54D, F59L
VL: B1 VL with R24S, S27Q, I30R, A43S, S93N, E96G
notes: Full length human IgG1/kappa, IgG1 mut(234,235); also called h10F7-A6; J439M1S2(H)3 #A6
B5: IL17-h10F7M-A16 hIgG1/K mut (antibody, V domains shown)
VH: B1 VH with T30S
VL: B1 VL with R24S, S27Q, I30R, A43S, S93N, E96G
notes: Full length human IgG1/kappa, IgG1 mut(234,235); also called h10F7-A16; J439M1S2(H)3 #A16
B6: IL17-h10F7M-A11 hIgG1/K mut (antibody, V domains shown)
VH: B1 VH with M48I, T71S, W102Y, Y103W, I110Y
VL: B1 VL
notes: Full length human IgG1/kappa, IgG1 mut(234,235); also called h10F7-A11; J439M1S2(H)3 #A11
B7: IL17-h10F7M-B13 hIgG1/K mut (antibody, V domains shown)
VH: B1 VH with T30S, W102Y, Y103W, I110Y
VL: B1 VL
notes: Full length human IgG1/kappa, IgG1 mut(234,235); also called h10F7-B13; J439M1S2(H)3 #B13
B8: hMAK199-1-h10F7-M10.8 DVD-Ig (bispecific antibody, human IgG1, kappa, L234A L235A)
heavy: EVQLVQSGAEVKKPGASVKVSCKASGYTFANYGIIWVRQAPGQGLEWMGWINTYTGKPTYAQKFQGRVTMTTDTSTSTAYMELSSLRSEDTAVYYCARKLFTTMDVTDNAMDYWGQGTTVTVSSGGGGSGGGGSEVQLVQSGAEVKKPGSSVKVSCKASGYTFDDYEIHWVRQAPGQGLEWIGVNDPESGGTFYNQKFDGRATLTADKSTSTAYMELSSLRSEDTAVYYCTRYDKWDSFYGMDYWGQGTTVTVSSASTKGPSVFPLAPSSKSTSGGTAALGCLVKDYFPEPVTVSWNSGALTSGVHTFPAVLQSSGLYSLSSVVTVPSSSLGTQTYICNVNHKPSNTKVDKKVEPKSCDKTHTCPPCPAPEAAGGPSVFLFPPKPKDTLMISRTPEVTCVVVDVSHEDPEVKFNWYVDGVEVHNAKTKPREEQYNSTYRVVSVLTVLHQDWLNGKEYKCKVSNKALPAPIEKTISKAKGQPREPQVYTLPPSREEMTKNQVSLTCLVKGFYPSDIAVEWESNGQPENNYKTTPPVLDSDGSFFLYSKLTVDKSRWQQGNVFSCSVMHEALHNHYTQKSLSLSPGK
light: DIQMTQSPSSLSASVGDRVTITCRASQDISQYLNWYQQKPGKAPKLLIYYTSRLQSGVPSRFSGSGSGTDFTLTISSLQPEDFATYFCQQGNTWPPTFGQGTKLEIKRGGSGGGGSGDIQMTQSPSSLSASVGDRVTITCSASSGSISYIDWFQQKPGKAPKRLIYATFELASGVPSRFSGSGSGTDFTLTISSLQPEDFATYYCHQLGSYPDTFGQGTKLEIKRTVAAPSVFIFPPSDEQLKSGTASVVCLLNNFYPREAKVQWKVDNALQSGNSQESVTEQDSKDSTYSLSSTLTLSKADYEKHKVYACEVTHQGLSSPVTKSFNRGEC
notes: DVD-Ig; IgG1 234,235 mut, kappa; GS10 linkers; also called HMAK199-1-GS10-H10F7-M10 DVD
B9: hMAK199-1-h10F7-M10.8 QL DVD-Ig (bispecific antibody, human IgG1, kappa, L234A L235A)
heavy: EVQLVQSGAEVKKPGASVKVSCKASGYTFANYGIIWVRQAPGQGLEWMGWINTYTGKPTYAQKFQGRVTMTTDTSTSTAYMELSSLRSEDTAVYYCARKLFTTMDVTDNAMDYWGQGTTVTVSSGGGGSGGGGSEVQLVQSGAEVKKPGSSVKVSCKASGYTFDDYEIHWVRQAPGQGLEWIGVNDPESGGTFYNQKFDGRATLTADKSTSTAYMELSSLRSEDTAVYYCTRYDKWDSFYGMDYWGQGTTVTVSSASTKGPSVFPLAPSSKSTSGGTAALGCLVKDYFPEPVTVSWNSGALTSGVHTFPAVLQSSGLYSLSSVVTVPSSSLGTQTYICNVNHKPSNTKVDKKVEPKSCDKTHTCPPCPAPEAAGGPSVFLFPPKPKDQLMISRTPEVTCVVVDVSHEDPEVKFNWYVDGVEVHNAKTKPREEQYNSTYRVVSVLTVLHQDWLNGKEYKCKVSNKALPAPIEKTISKAKGQPREPQVYTLPPSREEMTKNQVSLTCLVKGFYPSDIAVEWESNGQPENNYKTTPPVLDSDGSFFLYSKLTVDKSRWQQGNVFSCSVLHEALHNHYTQKSLSLSPGK
light: B8 light
notes: DVD-Ig; IgG1 (234,235) mut with QL mutations, kappa; GS10 linkers
B10: hMAK199-1-h10F7-M11.8 YTE DVD-Ig (bispecific antibody, human IgG1, kappa, L234A L235A)
heavy: EVQLVQSGAEVKKPGASVKVSCKASGYTFANYGIIWVRQAPGQGLEWMGWINTYTGKPTYAQKFQGRVTMTTDTSTSTAYMELSSLRSEDTAVYYCARKLFTTMDVTDNAMDYWGQGTTVTVSSGGGGSGGGGSEVQLVQSGAEVKKPGSSVKVSCKASGYTFTDYEIHWVRQAPGQGLEWMGVNDPESGGTFYNQKFDGRVTLTADESTSTAYMELSSLRSEDTAVYYCTRYSKWDSFDGMDYWGQGTTVTVSSASTKGPSVFPLAPSSKSTSGGTAALGCLVKDYFPEPVTVSWNSGALTSGVHTFPAVLQSSGLYSLSSVVTVPSSSLGTQTYICNVNHKPSNTKVDKKVEPKSCDKTHTCPPCPAPEAAGGPSVFLFPPKPKDTLYITREPEVTCVVVDVSHEDPEVKFNWYVDGVEVHNAKTKPREEQYNSTYRVVSVLTVLHQDWLNGKEYKCKVSNKALPAPIEKTISKAKGQPREPQVYTLPPSREEMTKNQVSLTCLVKGFYPSDIAVEWESNGQPENNYKTTPPVLDSDGSFFLYSKLTVDKSRWQQGNVFSCSVMHEALHNHYTQKSLSLSPGK
light: B8 light with S141R, S146I, E170D, F188Y, H206R, L208V, D213E
notes: DVD-Ig; IgG1 (234,235) mut with YTE mutations, kappa; GS10 linkers
B11: h10F7-M10-hMAk195-24.8 DVD-Ig (bispecific antibody, human IgG1, kappa, L234A L235A)
heavy: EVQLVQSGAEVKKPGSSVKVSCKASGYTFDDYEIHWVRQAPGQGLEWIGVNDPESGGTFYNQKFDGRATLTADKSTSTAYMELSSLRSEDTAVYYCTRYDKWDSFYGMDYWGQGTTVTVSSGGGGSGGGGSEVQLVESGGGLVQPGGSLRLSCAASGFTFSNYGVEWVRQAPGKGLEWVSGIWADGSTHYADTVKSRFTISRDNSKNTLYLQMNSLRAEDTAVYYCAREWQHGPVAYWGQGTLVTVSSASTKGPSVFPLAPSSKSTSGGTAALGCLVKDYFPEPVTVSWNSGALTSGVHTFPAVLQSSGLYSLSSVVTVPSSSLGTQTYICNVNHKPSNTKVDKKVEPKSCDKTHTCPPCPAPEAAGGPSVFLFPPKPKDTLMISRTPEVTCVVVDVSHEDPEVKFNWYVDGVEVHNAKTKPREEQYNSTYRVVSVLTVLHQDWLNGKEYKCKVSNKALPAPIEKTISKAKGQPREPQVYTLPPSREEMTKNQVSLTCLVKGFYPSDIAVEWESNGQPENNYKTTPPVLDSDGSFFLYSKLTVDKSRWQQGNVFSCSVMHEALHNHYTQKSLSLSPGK
light: DIQMTQSPSSLSASVGDRVTITCSASSGSISYIDWFQQKPGKAPKRLIYATFELASGVPSRFSGSGSGTDFTLTISSLQPEDFATYYCHQLGSYPDTFGQGTKLEIKRGGSGGGGSGDIQMTQSPSSLSASVGDRVTITCKASQLVSSAVAWYQQKPGKAPKLLIYWASTLHTGVPSRFSGSGSGTDFTLTISSLQPEDFATYYCQQHYRTPFTFGQGTKLEIKRTVAAPSVFIFPPSDEQLKSGTASVVCLLNNFYPREAKVQWKVDNALQSGNSQESVTEQDSKDSTYSLSSTLTLSKADYEKHKVYACEVTHQGLSSPVTKSFNRGEC

Columns and labels:
Human IL-17A [1] = target: T1, Human IL-17A (human, UniProt Q16552 20-155, limits assumed); assay: ELISA, captured antibody, biotin-human IL-17 titrated
T1 construct: Biotinylated in the ELISAs; purified recombinant protein in SPR; also called hIL17A; hIL-17
Description: (§1) The following protocol is used to characterize the binding of IL-17 antibodies to human IL-17 by enzyme-linked immunosorbent assay (ELISA). An ELISA plate was coated with 50 μl per well of goat anti mouse IgG-Fc at 2 μg/ml, overnight at 4° C. The plate was washed 3 times with PBS/Tween. 50 μl Mab diluted to 1 μg/ml in PBS/0.1% BSA was added to appropriate wells and incubated for 1 hour at room temperature (RT). The plate was washed 3 times with PBS/Tween. 50 μl of serial diluted biotin-human IL-17 was added to appropriate wells and incubated for 1 hour at RT. The plate was washed 3 times with PBS/Tween. 50 μl of streptavidin-HRP diluted 1:10,000 in PBS/0.1% BSA was added to appropriate wells and incubated for 1 hour at RT. The plate was washed 3 times with PBS/Tween. 50 μl of TMB was added to appropriate wells and the reaction allowed to proceed for 1 minute. The reaction was stopped with 50 μl/well 2N H₂SO₄ and the absorbance read at 450 nm.

Human IL-17A [2] = target: T1, Human IL-17A; assay: SPR (Biacore T200), antibody captured by anti-human IgG Fc, antigen in solution
Description: (§2) The binding of antibodies to purified recombinant IL-17 proteins was determined by surface plasmon resonance-based measurements with a Biacore® T200 instrument (GE Healthcare) using running HBS-EP (10 mM HEPES [pH 7.4], 150 mM NaCl, 3 mM EDTA, and 0.005% surfactant P20) containing 0.1 mg/ml BSA at 25° C. All chemicals were obtained from Biacore® AB (GE Healthcare) or otherwise from a source as described in the text. Approximately 5000 RU of goat anti-human IgG (Fcg) fragment specific polyclonal antibody (Pierce Biotechnology Inc, Rockford, Ill.) diluted in 10 mM sodium acetate (pH 4.5) was directly immobilized across a CM5 research grade biosensor chip using a standard amine coupling kit according to manufacturer's instructions and procedures at 25 μg/ml. Unreacted moieties on the biosensor surface were blocked with ethanolamine. Modified carboxymethyl dextran surface in flowcell 2, 3 and 4 were used as a reaction surface. Modified carboxymethyl dextran with Goat IgG in flow cell 1 was used as the reference surface. For kinetic analysis, rate equations derived from the 1:1 Langmuir binding model were fitted simultaneously to association and dissociation phases of all six injections (using global fit analysis with local float for Rmax) with the use of Biacore T200 Evaluation software v.1.0. Purified antibodies were diluted in HEPES-buffered saline for capture across goat anti-human IgG specific reaction surfaces. Antibodies to be captured as ligand (1-5 μg/ml) were injected over reaction matrices at a flow rate of 50 μl/minute. Association phase was monitored for 5 minute, while dissociation phase was monitored for 10-60 min to accommodate for slower off-rates. The association and dissociation rate constants, ka (unit M-1 s-1) and kd (unit s-1) were determined under a continuous flow rate of 50 μl/minute. Rate constants were derived by making kinetic binding measurements at six different antigen concentrations ranging from 0.78 nM to 100 nM, depending on the species of IL-17 tested. The association ka, dissociation rate kd and equilibrium dissociation constant KD were calculated with the use of the same Biacore T200 Evaluation software v.1.0.

Cynomolgus monkey IL-17A = target: T2, Cynomolgus monkey IL-17A (cynomolgus monkey, UniProt A0A2K5TTB0 24-155); assay: as above
T2 construct: also called Cyno IL-17AA; Cyno IL17AA
Description: as §2

Human IL-17A [3] = target: T1, Human IL-17A; assay: ELISA, captured DVD-Ig, biotin-human IL-17 titrated
Description: as §1, with “TNF/IL-17 DVD-Ig proteins” for “IL-17 antibodies”, “human TNF and” for “human”, “biotin-human TNF or” for “biotin-human”

Human TNF [4] = target: T3, Human TNF (human, UniProt P01375 77-233); assay: ELISA, captured DVD-Ig, biotin-human TNF titrated
T3 construct: Biotinylated in the ELISA; purified recombinant protein in SPR; also called h TNF; huTNF
Description: as §1, with “TNF/IL-17 DVD-Ig proteins” for “IL-17 antibodies”, “human TNF and” for “human”, “biotin-human TNF or” for “biotin-human”

Human TNF [5] = target: T3, Human TNF; assay: cell-based or functional assay

T3 sequence (P01375 77-233 limits assumed): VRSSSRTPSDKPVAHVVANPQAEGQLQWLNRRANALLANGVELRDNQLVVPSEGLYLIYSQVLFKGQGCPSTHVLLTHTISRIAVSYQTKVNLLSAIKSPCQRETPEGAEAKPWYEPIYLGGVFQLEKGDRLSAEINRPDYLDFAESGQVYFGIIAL
T1 sequence (Q16552 20-155 limits assumed): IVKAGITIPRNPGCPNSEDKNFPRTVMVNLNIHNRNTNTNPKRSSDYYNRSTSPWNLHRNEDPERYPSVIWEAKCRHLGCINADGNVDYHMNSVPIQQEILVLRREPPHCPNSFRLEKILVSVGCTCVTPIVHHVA
T2 sequence (A0A2K5TTB0 entry or part of it): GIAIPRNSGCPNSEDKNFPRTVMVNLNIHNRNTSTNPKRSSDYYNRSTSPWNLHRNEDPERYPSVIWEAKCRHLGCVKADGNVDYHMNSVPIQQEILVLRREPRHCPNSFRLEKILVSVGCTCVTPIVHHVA

Binder	EC50 (Human IL-17A [1])	Kd (Human IL-17A [2])	koff (Human IL-17A [2])	kon (Human IL-17A [2])	Kd (Cynomolgus monkey IL-17A)	koff (Cynomolgus monkey IL-17A)	kon (Cynomolgus monkey IL-17A)	EC50 (Human IL-17A [3])	EC50 (Human TNF [4])	Potency IC50 (nM), L929 bioassay, human TNF (Human TNF [5])
B1	0.07 nM	0.00214 nM	6.27e-06 s⁻¹	2.92e+06 M⁻¹ s⁻¹						
B2	0.03 nM	0.00153 nM	6.8e-06 s⁻¹	4.45e+06 M⁻¹ s⁻¹	0.00106 nM	4.4e-06 s⁻¹	4.14e+06 M⁻¹ s⁻¹			
B3	0.04 nM	0.00159 nM	7.24e-06 s⁻¹	4.53e+06 M⁻¹ s⁻¹	0.00086 nM	3.88e-06 s⁻¹	4.5e+06 M⁻¹ s⁻¹			
B4	0.08 nM	0.0015 nM	4.48e-06 s⁻¹	2.99e+06 M⁻¹ s⁻¹						
B5	0.07 nM	0.00151 nM	4.52e-06 s⁻¹	2.99e+06 M⁻¹ s⁻¹						
B6	0.04 nM	0.0021 nM	7.68e-06 s⁻¹	3.64e+06 M⁻¹ s⁻¹						
B7	0.06 nM	0.00256 nM	6.88e-06 s⁻¹	2.68e+06 M⁻¹ s⁻¹						
B8								0.081 nM	0.22 nM	0.037 nM
B9								0.063 nM	0.183 nM	
B10								0.05 nM	0.1 nM	
B11										2.56 nM
